The record followed here is PMC10397247.

Experiment in all cases: two-hybrid library CCNG1;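 further: natural log of median RNA to DNA barcode read ratio; higher means stronger binding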
In one experiment the target is T1, 4H470-bN.
T1 chain: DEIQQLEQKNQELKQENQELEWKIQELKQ

For another experiment, the target named is T2, 4H72-bA.
T2 chain: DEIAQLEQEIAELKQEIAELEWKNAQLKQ

The next experiment deals with T3, 4H918-bA.
T3 chain: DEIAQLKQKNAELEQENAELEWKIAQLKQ

Another experiment has as its target T4, 4H953-bA.
T4 chain: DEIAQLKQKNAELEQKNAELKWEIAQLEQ

A further experiment addresses T5, 4H3041-bH.
T5 chain: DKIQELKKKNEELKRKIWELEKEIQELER

In a further experiment the target is T6, 4H967-bA.
T6 chain: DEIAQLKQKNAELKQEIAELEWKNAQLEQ

The target in a further experiment is T7, 4H2697-bA.
T7 chain: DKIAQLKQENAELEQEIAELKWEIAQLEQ

The next experiment concerns the target T8, 4H3606-bA.
T8 chain: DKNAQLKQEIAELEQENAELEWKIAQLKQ

Another experiment concerns the target T9, 4H607-bA.
T9 chain: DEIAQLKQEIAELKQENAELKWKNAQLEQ

For a further experiment, the target named is T10, 4H462-bA.
T10 chain: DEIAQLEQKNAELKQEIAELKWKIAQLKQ

In another experiment the target is T11, 4H3782-bA.
T11 chain: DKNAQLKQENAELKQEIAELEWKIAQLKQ

A further experiment has as its target T12, 4H370-bA.
T12 chain: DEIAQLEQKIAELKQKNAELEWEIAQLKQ

In a further experiment the target is T13, 4H4001-bA.
T13 chain: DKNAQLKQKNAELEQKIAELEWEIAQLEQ

The target in the next experiment is T14, 4H883-bA.
T14 chain: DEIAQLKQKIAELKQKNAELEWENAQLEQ

The next experiment concerns the target T15, 4H331-bA.
T15 chain: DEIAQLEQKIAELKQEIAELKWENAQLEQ

The target of a further experiment is T16, 4H687-bA.
T16 chain: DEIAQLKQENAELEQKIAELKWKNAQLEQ

The next experiment concerns the target T17, 4H3843-bA.
T17 chain: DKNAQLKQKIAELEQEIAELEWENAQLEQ

In a further experiment the target is T18, 4H568-bA.
T18 chain: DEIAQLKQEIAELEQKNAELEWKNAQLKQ

Another experiment addresses T19, 4H797-bA.
T19 chain: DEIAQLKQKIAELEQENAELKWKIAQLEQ

The target in another experiment is T20, 4H3189-bA.
T20 chain: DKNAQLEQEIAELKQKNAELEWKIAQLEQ

B1: 4H470-bN (peptide)
chain: DEIQQLEQKNQELKQENQELEWKIQELKQ
Regarding B1, the interaction score with 4H470-bN was -0.484.

B2: 4H2697-bA (peptide)
chain: DKIAQLKQENAELEQEIAELKWEIAQLEQ
Regarding B2, the interaction score with 4H72-bA was -1.03; in the experiment with 4H918-bA, -0.926; with 4H953-bA, -1.44; with 4H3041-bH it was 1.02; with 4H967-bA, -0.359; in the experiment with 4H2697-bA it was -0.377. Moreover, the interaction score is -1.7 with 4H3606-bA; -1.17 with 4H607-bA; 2.04 with 4H462-bA; 0.993 in the experiment with 4H3782-bA; -1.13 with 4H370-bA; -0.951 in the experiment with 4H4001-bA. The interaction score is -1.53 in the experiment with 4H883-bA; -1.52 with 4H331-bA; -1.08 with 4H687-bA; -0.367 in the experiment with 4H3843-bA; -1.82 in the experiment with 4H568-bA; -0.734 with 4H797-bA. The interaction score in the experiment with 4H3189-bA was -1.34.
